By Kd is commonly meant the free concentration of one partner at which half of the binding sites on the other are occupied at equilibrium, for simple one-to-one binding. A lower Kd goes with a tighter complex.

The target of the series is integrin β1 (on KYSE410 ESCC cells) (UniProt P05556). Nature of the series: flow cytometry (cell binding). The note with it: 0.01 M PBS, 4.5 g/L glucose, 5 mM MgCl2, 1 mg/mL BSA, 0.1 mg/mL yeast tRNA, 30 min on ice, ~1e5 cells, pH not stated. In general terms: Flow cytometry measures light scatter and fluorescence of single cells or particles in a stream.
Chain of integrin β1 (on KYSE410 ESCC cells) (P05556 21-798): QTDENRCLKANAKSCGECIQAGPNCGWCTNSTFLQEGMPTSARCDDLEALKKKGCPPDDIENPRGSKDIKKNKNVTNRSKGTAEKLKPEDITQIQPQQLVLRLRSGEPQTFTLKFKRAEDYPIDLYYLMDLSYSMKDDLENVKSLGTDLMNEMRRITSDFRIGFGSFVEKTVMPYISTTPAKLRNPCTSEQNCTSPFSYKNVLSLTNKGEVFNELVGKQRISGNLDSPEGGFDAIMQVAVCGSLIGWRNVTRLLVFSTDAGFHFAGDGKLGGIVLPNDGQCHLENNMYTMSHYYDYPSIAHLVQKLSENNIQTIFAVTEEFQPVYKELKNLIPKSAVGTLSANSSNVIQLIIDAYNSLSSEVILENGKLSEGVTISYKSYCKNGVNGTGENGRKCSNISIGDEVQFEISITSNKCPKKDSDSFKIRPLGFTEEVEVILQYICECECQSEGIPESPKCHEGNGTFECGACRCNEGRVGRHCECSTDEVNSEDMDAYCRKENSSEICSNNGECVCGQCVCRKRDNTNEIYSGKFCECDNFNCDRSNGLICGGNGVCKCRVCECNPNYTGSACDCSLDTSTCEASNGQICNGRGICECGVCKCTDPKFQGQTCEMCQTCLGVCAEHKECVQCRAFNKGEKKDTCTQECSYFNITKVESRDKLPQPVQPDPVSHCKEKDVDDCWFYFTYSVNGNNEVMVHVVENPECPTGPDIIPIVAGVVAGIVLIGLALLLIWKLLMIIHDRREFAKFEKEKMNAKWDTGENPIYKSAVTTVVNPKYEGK

In turn, “CGTCGTCGTCGTCGTCGTTTTCGCGAATGCTATCGGGGCTAAGTATCAAAATGAGC / ACGACGACGACGACGACGTTTCGCGAATGCTATCGGGGCTAAGTATCAAAATGAGC [BAD (bivalent aptamer-DNA carrier)]” gave a Kd of 7.7 nM.

In turn, “CGCGAATGCTATCGGGGCTAAGTATCAAAATGAGC [A2(35)]” had a Kd of 58.1 nM.

The values are drawn from paper PMC11276760.
